Experimental findings from patent US20120222143 are described below.

Common to all, as to experiment: cell_activity
Series [1] concerns ACAN12 TALEN pair (left and right, FokI homodimer) (synthetic construct). To be noted: fibroblasts, day 3 SURVEYOR
In series [2] the test system is DMDE7.1 TALEN pair (left and right, FokI homodimer) (synthetic construct). To be noted: fibroblasts, day 3 SURVEYOR
For series [3], the system named is DMDE6 TALEN pair (left and right) (synthetic construct). Particulars: pig fibroblasts, day 3, co-transfected with DMDE7.1.
Series [4] deals with btGDF83.1 TALEN pair (left and right) (synthetic construct). To be noted: bovine fibroblasts, SURVEYOR; active at 30 and 37 C.
The subject of series [5] is p65 (RELA) TALEN pair (left and right) (synthetic construct). To be noted: porcine zygotes, 10 ng/ul mRNA each TALEN, 16 of 56.

ACAN12 target locus gave an activity (% chromosomes cleaved (NHEJ)) in series [1] of 25. For the substance DMD exon 7 target locus, the activity (% chromosomes cleaved (NHEJ)) in series [2] was 38. Substance DMD exon 6 target locus displayed an activity in series [3] of 24 % NHEJ. Take GDF8 exon 3 target locus: in series [4], the activity (% chromosomes cleaved (NHEJ)) is less than 16.

The substance p65 target locus had an activity (% embryos with indels) in series [5] of 29.
